{"source": "the RNAGym collection of RNA variant scans (doi:10.7554/elife.90254)", "parents": {"B1": {"name": "LINE1-mini (parent)", "chain": "GGCAGAGCUCAACACAGCGUGGCAAAGUGGCUGUGGCUAGACUGCC"}}, "data": [{"variants_of": "B1", "test": "self-cleavage, relative activity (ratio to wild type); higher = more cleavage; in vitro, sequencing; the parent is a self-cleaving ribozyme", "values": [{"variant": "AGCAGAGCUCAACACAGCAUGGCAAAGUGGCUGUGGCUAGACUGCC", "note": "[G1A G19A]", "self-cleavage": 1.77}, {"variant": "CGCAGAGCUCAGCACAGCGUGGCAAAGUGGCUGUGGCUAGACUGCC", "note": "[G1C A12G]", "self-cleavage": 0.02}, {"variant": "GGCAGAGCUCAACACAGCGUGGCAAAGUGCCUGUGGCUAGUCUGCC", "note": "[G30C A41U]", "self-cleavage": 0.73}, {"variant": "GGCAGAGCUCAACACAGUGUCGCAAAGUGGCUGUGGCUAGACUGCC", "note": "[C18U G21C]", "self-cleavage": 1.13}, {"variant": "GGCAGAGCUCAACACAGCGUGGCAAAGUGCCUGUGGCUAGACUGCA", "note": "[G30C C46A]", "self-cleavage": 0.45}, {"variant": "GGCAGAGCUCAACACAGCGGGGCAACGUGGCUGUGGCUAGACUGCC", "note": "[U20G A26C]", "self-cleavage": 0.47}, {"variant": "GGCAGGGCUCAACACAGCGUGGCAAAGUGUCUGUGGCUAGACUGCC", "note": "[A6G G30U]", "self-cleavage": 0.13}, {"variant": "GGCAGAGCUCAACACGGCGUAGCAAAGUGGCUGUGGCUAGACUGCC", "note": "[A16G G21A]", "self-cleavage": 0.7}, {"variant": "GGCAGAGCUCAACAGAGCGUGGCAAAUUGGCUGUGGCUAGACUGCC", "note": "[C15G G27U]", "self-cleavage": 0.04}, {"variant": "GGGAGAGCUCAACACAGCGUGACAAAGUGGCUGUGGCUAGACUGCC", "note": "[C3G G22A]", "self-cleavage": 0.36}, {"variant": "GGCAGAGCUCAACACAGCGUGGCAAAGUGGCGGUGGCUAGACCGCC", "note": "[U32G U43C]", "self-cleavage": 0.07}, {"variant": "GGCAGGGCUCAACACAGCGUGGCAAAGUGGCUGUGGCUAGACUGGC", "note": "[A6G C45G]", "self-cleavage": 0.18}, {"variant": "GGCAGAGCUCAACACAGCGUGGCAAAGUGGAUAUGGCUAGACUGCC", "note": "[C31A G33A]", "self-cleavage": 0.06}, {"variant": "GGCAGAGCUCAACACAGCGUGGCAUAGUGGCUGUGACUAGACUGCC", "note": "[A25U G36A]", "self-cleavage": 0.12}, {"variant": "GGCAGAGCUCGACACAGCGUGGCAAAGUGGCUCUGGCUAGACUGCC", "note": "[A11G G33C]", "self-cleavage": 0.03}, {"variant": "GGCAGAGCUCAACACCGCGUGGCAAAGUGGUUGUGGCUAGACUGCC", "note": "[A16C C31U]", "self-cleavage": 0.03}, {"variant": "GGCAGAGCUCAACACAGCGUGGCAAAGUGGCUGUAGCUAGACUUCC", "note": "[G35A G44U]", "self-cleavage": 0.09}, {"variant": "GCCAGAGCUCAACACAGCGUAGCAAAGUGGCUGUGGCUAGACUGCC", "note": "[G2C G21A]", "self-cleavage": 0.51}, {"variant": "GGCAGAGCUCAACUCAGCGUCGCAAAGUGGCUGUGGCUAGACUGCC", "note": "[A14U G21C]", "self-cleavage": 0.57}, {"variant": "GGCAGAGCUCAGCACAGCUUGGCAAAGUGGCUGUGGCUAGACUGCC", "note": "[A12G G19U]", "self-cleavage": 0.02}, {"variant": "GGCAGAUCUCAACACAGCGUGGCAAAGUGGCUGUGGCUAGGCUGCC", "note": "[G7U A41G]", "self-cleavage": 0.09}, {"variant": "GGCAGAGCUCAUCACAGCGAGGCAAAGUGGCUGUGGCUAGACUGCC", "note": "[A12U U20A]", "self-cleavage": 0.12}, {"variant": "GGCCGAGCUCAACACAGCGGGGCAAAGUGGCUGUGGCUAGACUGCC", "note": "[A4C U20G]", "self-cleavage": 0.1}, {"variant": "GGCAGAGCUCAACACAGCGUGGCAAAGUGAGUGUGGCUAGACUGCC", "note": "[G30A C31G]", "self-cleavage": 0.09}, {"variant": "GGCAGAGCUCCACACAGCGUGGCAAAAUGGCUGUGGCUAGACUGCC", "note": "[A11C G27A]", "self-cleavage": 0.11}, {"variant": "GGCAGAGCUCAACACAGGGUGGCAAAGUGGCUGUGGGUAGACUGCC", "note": "[C18G C37G]", "self-cleavage": 0.06}, {"variant": "GGCAGAACUCAACACAGCGUGGCAAAGUGGCGGUGGCUAGACUGCC", "note": "[G7A U32G]", "self-cleavage": 0.11}, {"variant": "GGCAGAGCUCAACACAGCGUGGCAAAGCGGCUGUGGCGAGACUGCC", "note": "[U28C U38G]", "self-cleavage": 0.01}, {"variant": "GGCAGAGCUUAACACAGCGUGGCAUAGUGGCUGUGGCUAGACUGCC", "note": "[C10U A25U]", "self-cleavage": 0.48}, {"variant": "GGCAGAGCUCAACACAGCGUGGCAAUGUGGCUGUGGCUAGACAGCC", "note": "[A26U U43A]", "self-cleavage": 0.08}, {"variant": "GGCAGAGCUCAACACACCGUGGCAAAGUGGCUGUGGCUAGACUUCC", "note": "[G17C G44U]", "self-cleavage": 0.07}, {"variant": "GGUAGAGCUCAACACAGCGUGGCAAAGUGGCUGUGACUAGACUGCC", "note": "[C3U G36A]", "self-cleavage": 0.34}, {"variant": "GGCAGAGCUCAACACAGCGUGGCAAACUGGCUGUGGCUAUACUGCC", "note": "[G27C G40U]", "self-cleavage": 0.12}, {"variant": "GGCAGAGCUCAAGACAGCGUGGCAAAGUGGCUGUGGCUAGAUUGCC", "note": "[C13G C42U]", "self-cleavage": 0.12}, {"variant": "GGCAGAGCUCAACACAGCGUGGAAAAGUGGCUCUGGCUAGACUGCC", "note": "[C23A G33C]", "self-cleavage": 0.05}, {"variant": "GCCAGAGCUCAACACAGCGUGGCAAAGUGGCUCUGGCUAGACUGCC", "note": "[G2C G33C]", "self-cleavage": 0.02}, {"variant": "GGCAGCGCUCAACACAGCGUGCCAAAGUGGCUGUGGCUAGACUGCC", "note": "[A6C G22C]", "self-cleavage": 0.65}, {"variant": "GGCAGAGCUCAACACAGCGUGGCAAAGUGGCUGUGUUUAGACUGCC", "note": "[G36U C37U]", "self-cleavage": 0.03}, {"variant": "GGCAGAGCUCAACACAGCGUGGCAAAGUGGCUGCGGCUAGGCUGCC", "note": "[U34C A41G]", "self-cleavage": 0.07}, {"variant": "GGCAGAGAUCAACACAGCGUGGCAAAGUGGCUGUGGCUAGACGGCC", "note": "[C8A U43G]", "self-cleavage": 0.11}, {"variant": "GGCAGAGCUCAACACAGCGUGGCAAAGUGGCUCUGGAUAGACUGCC", "note": "[G33C C37A]", "self-cleavage": 0.03}, {"variant": "GGCAGAGCUCAACAAAGCGUGGCAAAGUGGCUGUGGCUAGACGGCC", "note": "[C15A U43G]", "self-cleavage": 0.07}, {"variant": "GGCAGAGCUCACCACAGCGUGGCAAAGUGGAUGUGGCUAGACUGCC", "note": "[A12C C31A]", "self-cleavage": 0.03}, {"variant": "GGCACAGCUCAACACAGCGUGGCAAAGUGGCUGUGGCAAGACUGCC", "note": "[G5C U38A]", "self-cleavage": 0.09}, {"variant": "GGCGGAGUUCAACACAGCGUGGCAAAGUGGCUGUGGCUAGACUGCC", "note": "[A4G C8U]", "self-cleavage": 0.24}, {"variant": "GGCAGAGCUCAACACAGCGUGUCAAAGUGGAUGUGGCUAGACUGCC", "note": "[G22U C31A]", "self-cleavage": 0.2}, {"variant": "GGCAGAGCUCAACACAGCGCGGCAAAGUGGCUGUAGCUAGACUGCC", "note": "[U20C G35A]", "self-cleavage": 0.1}, {"variant": "GGCAGAGCUCAACACAGCGUGGCAGCGUGGCUGUGGCUAGACUGCC", "note": "[A25G A26C]", "self-cleavage": 0.49}, {"variant": "GGCAGAACUCAACACAGCGUGACAAAGUGGCUGUGGCUAGACUGCC", "note": "[G7A G22A]", "self-cleavage": 0.14}, {"variant": "GGCAGAGCUCAACAGAGCGUGGCAAAGUGGCUGUGACUAGACUGCC", "note": "[C15G G36A]", "self-cleavage": 0.06}, {"variant": "GGCAGAGCACAACACAGCCUGGCAAAGUGGCUGUGGCUAGACUGCC", "note": "[U9A G19C]", "self-cleavage": 0.06}, {"variant": "GGCAGAGCUCAACACAGCGUGGCAAAGUGGCUGAGCCUAGACUGCC", "note": "[U34A G36C]", "self-cleavage": 0.03}, {"variant": "GGCAGAGCUCAACACAACGUGGCAAACUGGCUGUGGCUAGACUGCC", "note": "[G17A G27C]", "self-cleavage": 0.19}, {"variant": "GGCAGAGCUCAACUCAGCGUGGCAAAGUGGCUUUGGCUAGACUGCC", "note": "[A14U G33U]", "self-cleavage": 0.12}, {"variant": "AGCACAGCUCAACACAGCGUGGCAAAGUGGCUGUGGCUAGACUGCC", "note": "[G1A G5C]", "self-cleavage": 0.08}, {"variant": "GGCAGAGCUCAACACAGCGAGGCAAAGUGGCGGUGGCUAGACUGCC", "note": "[U20A U32G]", "self-cleavage": 0.08}]}]}
